Legend:
GSK-3β = assay: In vitro phosphorylation assay of GST-2E11 (KCNQ2-15b fusion protein) with recombinant GSK-3β kinase and PKA; assay type: biochemical; details: LiCl added to the kination mix (0, 8.3, 25, 75, 225 mM); autoradiography band at about 45 kD; read-out: LiCl concentration at which the phosphorylation state of GST-2E11 was reduced by 50%
Method: Expression and purification of the GST-2E11 fusion protein were performed as described above. Beads with bound fusion protein corresponding to 1 ml of bacterial clear lysate were washed three times in NETN and one time with HMK buffer without DTT (20 mM Tris-HCl [pH 7.5], 120 mM NaCl, 12 mM MgCl2). Beads were resuspended in 240 μl of reaction mix (24 μl of 10× HMK Buffer with 20 mM DTT, 40 units of Protein Kinase A Catalytic Subunit [PKA from bovine heart, 250 units/vial, Sigma] in 40 mM DTT, 5 μl of 24 mM ATP and 207 μl of distilled water) and incubated for 30 min at room temperature. Beads were then washed three times in NETN buffer and one time in GSK -3β reaction buffer (20 mM Tris-HCl [pH 7.5], 10 mM MgCl2, 5 mM DTT) (New England Biolabs). Beads were then resuspended in 50 μl of reaction mix (5 μl of 10× GSK-3β reaction buffer, 1 μl of [^32P]γATP 10 mCi/ml, 50 U of recombinant GSK-3β[New England Biolabs], and distilled water for a final volume of 50 μl) and incubated at room temperature for 30 min. After three washes in NETN buffer, phosphorylated proteins were boiled in 2× Sample Buffer (125 mM Tris-HCl [pH 6.8], 4% SDS, 20% glycerol, 1.4 M β-Mercapto ethanol), resolved by 10% SDS-PAGE, and visualized by autoradiography.
In this phosphorylation assay, non-radiolabeled polypeptides to be tested are incubated in the presence of GSK-3β, PKA and radioactive ATP. […]

PP2A phosphatase = assay: In vitro dephosphorylation of phosphorylated GST-2E11 with HTB-14 whole cell extracts; assay type: biochemical, Human; details: HTB-14 cell extracts (500 μg) plus 400 μM okadaic acid, 30 min, room temperature
Method: In vitro phosphorylated GST-2E11 fusion protein was incubated at room temperature for 30 min with 500 μg of whole cell extracts of Human glioblastoma, astrocytoma cell line (ATCC number: HTB-14) with or without 400 μM of the PP2A phosphatase inhibitor okadaic acid (Sigma). HTB-14 whole cell extracts were prepared as follow: cells were washed three times with ice-cold TBS buffer (10 mM Tris-HCl [pH 8.0], 120 mM NaCl) and lysed at 4° C. for 30 min in EBC buffer (50 mM Tris-HCl [pH 8.0], 120 mM NaCl, 0.5% Nonidet P-40). Then the lysate was centrifugated for 10 min at 13.000×g at 4° C. to pellet cell debris. Proteins present in the supernatant were quantified by the standard Bradford's method (Bio-Rad Protein Assay). The proteins were then resolved by 10% SDS-PAGE, and visualized by autoradiography.
The phosphorylated radiolabeled GST-2E11 proteins obtained from the previous assay were incubated in the presence of HTB-14 cell extracts containing the PP2A phosphatase to determine whether PP2A is capable of dephosphorylating GST-2E11 proteins. In this experiment, a protein that is dephosphorylated by PP2A is not radioactive after incubation in the presence of HTB-14 cell extracts any more. Thus dephosphorylation of the GST-2E11 protein is monitored by disappearance of the signal visualized by autoradiography. […]

[1] = system: GST-2E11 recombinant protein
GST recombinant protein = molecular target: T1, GST recombinant protein (UniProt P08515 1-218 = GST); assay: solid phase overlay assay: GST blotted on nitrocellulose, probed with 32P-labeled GST-PPP2R2C, autoradiography
T1 construct: Negative control in the overlay assay; also called Glutathione S-transferase; pGEX2TK plasmid product
Method: After 4.5 hr of incubation, the membrane was washed with Hyb75 buffer, 1 mM DTT, 1% (w/v) non-fat dry milk three times for 15 min at room temperature. The blots were analyzed by autoradiography.

Molecule	phosphorylation of GST-2E11 with 5 µg of CREB phosphopeptides added as competitor [1]	phosphorylation with [32P]γATP, band at about 45 kD by autoradiography [1]	further results
[Cl-].[Li+] [LiCl]	–	–	IC50 (GSK-3β): ~50 mM
C=C1[C@@H](O)[C@@H]2O[C@]3(CC[C@H](/C=C/[C@@H](C)[C@@H]4CC(C)=C[C@@]5(O[C@H](C[C@@](C)(O)C(=O)O)CC[C@H]5O)O4)O3)CC[C@H]2O[C@@H]1[C@@H](O)C[C@H](C)[C@H]1O[C@@]2(CCCCO2)CC[C@H]1C [okadaic acid]	–	–	intensity of the GST-2E11 band versus the band of phosphorylated GST-2E11 (reference) (PP2A phosphatase): only slightly weaker
PP2A phosphatase in HTB-14 whole cell extracts	–	–	dephosphorylation of 32P-phosphorylated GST-2E11 (loss of the autoradiography band), with or without okadaic acid [1]: In the line loaded with GST-2E11 fusion proteins incubated in the presence of HTB-14 cell extracts, the band had an extremely weaker intensity
Protein Kinase A Catalytic Subunit (PKA from bovine heart, Sigma)	A band did still appear at a position corresponding to the size of GST-2E11, but the intensity of the band was very significantly lower	Thus the GST-2E11 protein is phosphorylated by GSK-3β and PKA in vitro	–
recombinant GSK-3β kinase (New England Biolabs)	A band did still appear at a position corresponding to the size of GST-2E11, but the intensity of the band was very significantly lower	Thus the GST-2E11 protein is phosphorylated by GSK-3β and PKA in vitro	–
GST-PPP2R2C radiolabeled recombinant protein (other, radiolabeled with [32P]-γATP by Protein Kinase A Catalytic Subunit, Used as the soluble probe in the solid phase overlay assay; also called PP2A/Bγ; pGEX-2TK-PPP2R2C; not shown: glutathione S-transferase encoded by the pGEX-2TK vector (Amersham Pharmacia Biotech)) MGEDTDTRKINHSFLRDHSYVTEADIISTVEFNHTGELLATGDKGGRVVIFQREPESKNAPHSQGDYDVYSTFQSHEPEFDYLKSLEIEEKINKIKWLPQQNAAHSLLSTNDKTIKLWKITERDKRPEGYNLKDEEGKLKDLSTVTSLQVPVLKPMDLMVEVSPRRIFANGHTYHINSISVNSDCETYMSADDLRINLWHLAITDRSFNIVDIKPANMEDLTEVITASEFHPHHCNLFVYSSSKGSLRLCDMPAAALCDKHSKLFEEPEDPSNRSFFSEIISSVSDVKFSHSDRYMLTRDYLTVKVWDLNMEARPIETYQVHDYLRSKLCSLYENDCIFDKFECAWNGSDSVIMTGAYNNFFRMFDRNTKRDVTLEASRESSKPRAVLKPRRVCVGGKRRRDDISVDSLDFTKKILHTAWHPAENIIAIAATNNLYIFQDKVNSDMH	–	–	binding result (GST recombinant protein): no binding (tested: 100 ng, 10 ng and 0.1 ng of GST loaded)

From patent US20060275758A1, “Use of pp2a phosphatase modulators in the treatment of mental disorders” (priority 2002, published 2006)
